# Measurements taken from patent US20210388087A1 (Chugai, published 2021).
# Numbering of substitutions follows the chain as printed. Numbers in names are those of the source.
# B1: H183/L072 VH G52cL (antibody, name in Kabat numbering, V domains shown)
# VH: QVQLVESGGGLVQPGRSLRLSCAASGFTFSNAWMHWVRQAPGKGLEWVAQIKDKLNAYAAYYAPSVKGRFTISRDDSKNSIYLQMNSLKTEDTAVYYCHYVHYASASTVLPAFGVDAWGQGTTVTVSS
# VL: DIVMTQSPLSLPVTPGEPASISCQASQELVHMNRNTYLHWYQQKPGQAPRLLIYKVSNRFPGVPDRFSGSGSGTDFTLKISRVEAEDVGVYYCAQGTSVPFTFGQGTKLEIK
# B2: H183/L072 VH H93I (antibody, name in Kabat numbering, V domains shown)
# VH: B1 VH with L55G, H99I
# VL: B1 VL
# B3: H183/L072 VH G52cS (antibody, name in Kabat numbering, V domains shown)
# VH: B1 VH with L55S
# VL: B1 VL
# B4: H183/L072 VH G100hL (antibody, name in Kabat numbering, V domains shown)
# VH: B1 VH with L55G, G114L
# VL: B1 VL
# B5: H183/L072 VH G52cN (antibody, name in Kabat numbering, V domains shown)
# VH: B1 VH with L55N
# VL: B1 VL
# B6: H183/L072 VH H93L (antibody, name in Kabat numbering, V domains shown)
# VH: B1 VH with L55G, H99L
# VL: B1 VL
# B7: H183/L072 VH H35Y (antibody, name in Kabat numbering, V domains shown)
# VH: B1 VH with H35Y, L55G
# VL: B1 VL
# B8: H183/L072 VH G52cY (antibody, name in Kabat numbering, V domains shown)
# VH: B1 VH with L55Y
# VL: B1 VL
# B9: H183/L072 VH G65M (antibody, name in Kabat numbering, V domains shown)
# VH: B1 VH with L55G, G68M
# VL: B1 VL
# B10: H183/L072 VH G100hA (antibody, name in Kabat numbering, V domains shown)
# VH: B1 VH with L55G, G114A
# VL: B1 VL
# B11: H183/L072 VH K52M (antibody, name in Kabat numbering, V domains shown)
# VH: B1 VH with K52M, L55G
# VL: B1 VL
# B12: H183/L072 VH H96I (antibody, name in Kabat numbering, V domains shown)
# VH: B1 VH with L55G, H102I
# VL: B1 VL
# B13: H183/L072 VH G52cW (antibody, name in Kabat numbering, V domains shown)
# VH: B1 VH with L55W
# VL: B1 VL
# B14: H183/L072 VH H96M (antibody, name in Kabat numbering, V domains shown)
# VH: B1 VH with L55G, H102M
# VL: B1 VL
# B15: H183/L072 VH H35V (antibody, name in Kabat numbering, V domains shown)
# VH: B1 VH with H35V, L55G
# VL: B1 VL
# B16: H183/L072 VH I51L (antibody, name in Kabat numbering, V domains shown)
# VH: B1 VH with I51L, L55G
# VL: B1 VL
# B17: H183/L072 VH G52cR (antibody, name in Kabat numbering, V domains shown)
# VH: B1 VH with L55R
# VL: B1 VL
# B18: H183/L072 VH G52cP (antibody, name in Kabat numbering, V domains shown)
# VH: B1 VH with L55P
# VL: B1 VL
# B19: H183/L072 VH I51M (antibody, name in Kabat numbering, V domains shown)
# VH: B1 VH with I51M, L55G
# VL: B1 VL
# B20: H183/L072 VH G100hI (antibody, name in Kabat numbering, V domains shown)
# VH: B1 VH with L55G, G114I
# VL: B1 VL
# B21: H183/L072 VH G100hM (antibody, name in Kabat numbering, V domains shown)
# VH: B1 VH with L55G, G114M
# VL: B1 VL
# B22: H183/L072 VH H35F (antibody, name in Kabat numbering, V domains shown)
# VH: B1 VH with H35F, L55G
# VL: B1 VL
# B23: H183/L072 VH I51T (antibody, name in Kabat numbering, V domains shown)
# VH: B1 VH with I51T, L55G
# VL: B1 VL
# B24: H183/L072 VH I51V (antibody, name in Kabat numbering, V domains shown)
# VH: B1 VH with I51V, L55G
# VL: B1 VL
# B25: H183/L072 VH I51S (antibody, name in Kabat numbering, V domains shown)
# VH: B1 VH with I51S, L55G
# VL: B1 VL
# B26: H183/L072 VH H93A (antibody, name in Kabat numbering, V domains shown)
# VH: B1 VH with L55G, H99A
# VL: B1 VL
# B27: H183/L072 VH H96L (antibody, name in Kabat numbering, V domains shown)
# VH: B1 VH with L55G, H102L
# VL: B1 VL
# B28: H183/L072 VH G65L (antibody, name in Kabat numbering, V domains shown)
# VH: B1 VH with L55G, G68L
# VL: B1 VL
# B29: H183/L072 VH I51G (antibody, name in Kabat numbering, V domains shown)
# VH: B1 VH with I51G, L55G
# VL: B1 VL
# B30: H183/L072 VH I51N (antibody, name in Kabat numbering, V domains shown)
# VH: B1 VH with I51N, L55G
# VL: B1 VL
# B31: H183/L072 VH H93M (antibody, name in Kabat numbering, V domains shown)
# VH: B1 VH with L55G, H99M
# VL: B1 VL
# B32: H183/L072 VH H35N (antibody, name in Kabat numbering, V domains shown)
# VH: B1 VH with H35N, L55G
# VL: B1 VL
# B33: H183/L072 VH I51K (antibody, name in Kabat numbering, V domains shown)
# VH: B1 VH with I51K, L55G
# VL: B1 VL
# B34: H183/L072 VH G52cM (antibody, name in Kabat numbering, V domains shown)
# VH: B1 VH with L55M
# VL: B1 VL
# B35: H183/L072 VH G65I (antibody, name in Kabat numbering, V domains shown)
# VH: B1 VH with L55G, G68I
# VL: B1 VL
# B36: H183/L072 VH G52cQ (antibody, name in Kabat numbering, V domains shown)
# VH: B1 VH with L55Q
# VL: B1 VL
# B37: H183/L072 VH H96P (antibody, name in Kabat numbering, V domains shown)
# VH: B1 VH with L55G, H102P
# VL: B1 VL
# B38: H183/L072 VH I51A (antibody, name in Kabat numbering, V domains shown)
# VH: B1 VH with I51A, L55G
# VL: B1 VL
# B39: H183/L072 VH G65P (antibody, name in Kabat numbering, V domains shown)
# VH: B1 VH with L55G, G68P
# VL: B1 VL
# B40: H183/L072 VH H35T (antibody, name in Kabat numbering, V domains shown)
# VH: B1 VH with H35T, L55G
# VL: B1 VL
# B41: H183/L072 VH H96A (antibody, name in Kabat numbering, V domains shown)
# VH: B1 VH with L55G, H102A
# VL: B1 VL
# B42: H183/L072 VH G52cV (antibody, name in Kabat numbering, V domains shown)
# VH: B1 VH with L55V
# VL: B1 VL
# B43: H183/L072 VH G52cT (antibody, name in Kabat numbering, V domains shown)
# VH: B1 VH with L55T
# VL: B1 VL
# B44: H183/L072 VH K52L (antibody, name in Kabat numbering, V domains shown)
# VH: B1 VH with K52L, L55G
# VL: B1 VL
# B45: H183/L072 VH G65A (antibody, name in Kabat numbering, V domains shown)
# VH: B1 VH with L55G, G68A
# VL: B1 VL
# B46: H183/L072 VH H93P (antibody, name in Kabat numbering, V domains shown)
# VH: B1 VH with L55G, H99P
# VL: B1 VL
# B47: H183/L072 VH I51Y (antibody, name in Kabat numbering, V domains shown)
# VH: B1 VH with I51Y, L55G
# VL: B1 VL
# Molecular target: T1, Human CD137 ECD (human)
# T1 construct: also called 4-1BB
# T1 sequence (chain, as listed by the source limits assumed): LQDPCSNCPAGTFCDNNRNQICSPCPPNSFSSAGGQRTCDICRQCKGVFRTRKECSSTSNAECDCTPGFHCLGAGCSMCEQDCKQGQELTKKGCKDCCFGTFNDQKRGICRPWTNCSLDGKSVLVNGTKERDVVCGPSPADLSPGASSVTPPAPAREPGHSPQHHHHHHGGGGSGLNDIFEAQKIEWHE
# Assay: single mutant vs template dBBDu183H
row,Binder,fold change of affinity
1,B1,0.8 fold
2,B2,0 fold
3,B3,1.3 fold
4,B4,0 fold
5,B5,0.9 fold
6,B6,0 fold
7,B7,3.9 fold
8,B8,2 fold
9,B9,1.2 fold
10,B10,0 fold
11,B11,0.3 fold
12,B12,0.5 fold
13,B13,2 fold
14,B14,1.4 fold
15,B15,0.5 fold
16,B16,0.1 fold
17,B17,0.2 fold
18,B18,0.4 fold
19,B19,0.2 fold
20,B20,0 fold
21,B21,0 fold
22,B22,4.3 fold
23,B23,0.3 fold
24,B24,1 fold

row,Binder,fold change of affinity
1,B25,0.4 fold
2,B26,0 fold
3,B27,0.8 fold
4,B28,1.3 fold
5,B29,0.1 fold
6,B30,0.2 fold
7,B31,0 fold
8,B32,0.4 fold
9,B33,0.1 fold
10,B34,0.6 fold
11,B35,1.3 fold
12,B36,0.7 fold
13,B37,0 fold
14,B38,0.1 fold
15,B39,1.3 fold
16,B40,0.5 fold
17,B41,0 fold
18,B42,0.7 fold
19,B43,1 fold
20,B44,0.1 fold
21,B45,1.2 fold
22,B46,0 fold
23,B47,0 fold
